Results as given in the supplement of paper PMC9170038.

test system: MS2 coat protein; experiment: apparent KD of MS2 coat protein, switch ON state; designed switch direction (-1 OFF switch, 1 ON switch): -1; higher = weaker reporter binding; conditions: FMN input: 0 or 200 uM; Eterna round: R93 (includes R88 designs)
Procedure, shortened: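 With or without constant ligand, designed RNA switches in 100 mM Tris-HCl pH 7.5, 80 mM KCl and 4 mM MgCl2 were titrated with SNAP-549-labelled MS2 coat protein. Concentrations went up in twofold steps from 0.7 or 1.5 nM to 3 µM. The switches had been transcribed on-chip from Illumina sequencing clusters, and apparent KD is the per-design median of normalised cluster binding-curve fits.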

Row | Sequence | apparent KD of MS2 coat protein
1 | AUAAUACAUGAGGAUCACCCAUGUCAGGAUAUGCUAAAAUUAAAAUUAAAUCAAAAAUGUAGAAGGGACUAAAU [Exclusion Z3] | 49.8 nM
2 | AACAUGUCAGGAUAUGUAGCAAAAAGUGAUCCAAAAAAGCUACAGAAGGGACAUGAGGAUCACCCAUGUAAAAA [Ex4: 933] | 124 nM
3 | AAACGUAGAGGAUAUACAGGGCUAUUACGAAAGUAAUAGAAACAUGAGGAUCACCCAUGUAGAAGGCUACGAAA [Mod2 of Meechl 64% 1] | 162 nM
4 | AGUAUGCGAGGAUAUACAUGAGGAUCACCCAUGUGAGAGAUAAAAGUGAGAAAGAAAAGUAGAAGGCGCGUACA [JL Lego Mod 21] | 50.7 nM
5 | AACAGUACAGGAUAUACAUGAGGAUCACCCAUGUGAAAAUUAAGUGGGAAACCACAAAGUAGAAGGGUACUGAA [Mat - Exclusion 3 - Eli mod - D59] | 22 nM
6 | AAAAAGAUAGGAUAUACGAACAUGUCAAAAGACGUGAAGGGACAUGAGGAUCACCCAUGUAGAAGGAUUAAAAA [JL Wide Open 39] | 38.8 nM
7 | AAGUUAUUAGGAUAUACUUGUGCGAUUAAUACGCUGAUAGUACAUGAGGAUCACCCAUGUAGAAGGAAUAAAAA [JR_Exc002_Sub410] | 33.4 nM
8 | GAUAGUGAAGGAUAUACUGGAGGAGUGCGAUAGAAGAAAGAACAUGAGGAUCACCCAUGUAGAAGGUCAGAAGU [JR_Exc002_Sub1225] | 32.3 nM
9 | AAAAAGGUAGGAUAUACAUGAGGAUCACCCAUGUACAUAAAUGGAGAAAAAAACAGUUGUAGAAGGGCCAAAAA [Ex3 Malc#9] | 41.7 nM
10 | AAAGAUGGAGGAUAUACAUGAGGAUCACCCAUGUGGAAUCUAAAAUGGGAAAAAGAAAGUAGAAGGCCAUAAAA [Ex 3 May 40] | 36.7 nM
11 | CUCAAGUGAGGAUAUAUAAGAAAAGAAGAGAAAGAAAAGAAAUAGAAGGCACAUGAGGAUCACCCAUGUAAGAA [EteRNA is fun!] | 29.5 nM
12 | AAAAAACAUGAGGAUCACCCAUGUGAGGAUAUACGAAAGUAGAAGGCACUAAAAAAAAAAAGAAGGAAAAAAAA [Meechl Ex1 R2 m0] | 24.2 nM
13 | UAAAAACAUGAGGAUCACCCAUGUCAGGAUAUGUGCUCAGUGAAAAACUGAGUAACAAGCAGAAGGGACAAUAA [JR_Exc001_Sub202] | 23.6 nM
14 | CAAUCUGCAGGAUAUACAUGAGGAUCACCCAUGUAAGGACAAUAAAUAAGAAGAAGAAGUAGAAGGGCAGACAA [e3] | 27.5 nM
15 | AAGAACAGAGGAUAUACUAAAGAAAUGAAAAGAAAGAAAGAACAUGAGGAUCACCCAUGUAGAAGGCUGAAGAA [Yakbim Sekhaenre] | 25.9 nM
16 | AGAAACUGAGGAUAUACUUUGGGAAAAGAAAAGAUGAUGUUACAUGAGGAUCACCCAUGUAGAAGGCAGAAAGA [Mat - Exclusion 2 - Mod - D152] | 25.5 nM
17 | AAGAGGUCAGGAUAUGCCCACCAGGAAAAACGUCCAGGUGGGCAGAAGGGACAUGAGGAUCACCCAUGUAAAGA [Opal 41] | 44.8 nM
18 | AAGAAGUGAGGAUAUCGAAGACUGUCGAAAAGACAGUCGAACGAGAAGGCACAUGAGGAUCACCCAUGUGAUAA [Mat - Exaclusion 4 - Eli mod - D70] | 28.2 nM
19 | GGUUGGCGAGGAUAUACAUGAGGAUCACCCAUGUGAGUGAAAAAAGUGAGAAAGAAAAGUAGAAGGCGCUGACG [salish99-ex3-47] | 161 nM
20 | GGAAAACAUGAGGAUCACCCAUGUAAGGAUAUGCUAAAAAAAAAAAAAAACCCACCAGGCAGAAGGUACUAAAG [Janelle Amethyst 18 Mod 2 - Jieux - Exclusion 1] | 20.4 nM
21 | AAAAAGAGAGGAUAUACAUGAGGAUCACCCAUGUGAAAGACGAAAAAAAGUCUAAAGUGUAGAAGGCUCAAAAA [65%, Moding Exclusion3-cac2, 14] | 25.3 nM
22 | AAGAAUGAAGGAUAUACAUGAGGAUCACCCAUGUAAGAGAAAGAGGGAAAAGAGAAAAGUAGAAGGUCAAAGAA [Ruby 72] | 22 nM

Row | Sequence | apparent KD of MS2 coat protein
23 | AGCUAGUCAGGAUAUACGAAAAUGCUAGAAGACGUAAGGGAACAUGAGGAUCACCCAUGUAGAAGGGACUAGCA [Diamond 46] | 21.9 nM
24 | AAAAAUGGAGGAUAUACAUGAGGAUCACCCAUGUGAAACAAAAAAAAAAACAAAAAAAGUAGAAGGCCAAAAAA [Gilly Gone Silly 2 - Jieux - Exclusion 3] | 36.7 nM
25 | GAAAAUGGAGGAUAUACAUGAGGAUCACCCAUGUGUAAAAAAAAUUACACAAAAGAAAGUAGAAGGCCAUAAAG [Mat - Exclusion 3 - Mayanna mod - D106] | 49.8 nM
26 | AUAAUGUCAGGAUAUCAGUAGUAAAAAAAAAAAAUUACUACUGAGAAGGGACAUGAGGAUCACCCAUGUCAAAA [EX4 307: Super Stable 7] | 27.6 nM
27 | AAUAAGUGAGGAUAUGUAAAUAGUAGAUAAGAUUCCCUAAAACAGAAGGCACAUGAGGAUCACCCAUGUAAAUA [JR_Exc004_Sub007] | 25.9 nM
28 | AAGAAGUGAGGAUAUGCUGCUCGUCACAAAAGUGAUGAGUAGCAGAAGGCACAUGAGGAUCACCCAUGUAAAGA [JL eternac mod 1] | 40.6 nM
29 | AACGGGCUAGGAUAUACACAAGCCUCAUAACAAAUAAACAAACAUGAGGAUCACCCAUGUAGAAGGAGCGCAAA [Quraaon] | 33 nM
30 | AGUCUGAGAGGAUAUACAUGGGAAAAAAAAGUCAGAUCCCUACAUGAGGAUCACCCAUGUAGAAGGCUCUGACA [Ex2 Design 147: Sub-opt 11] | 22.2 nM
31 | AAUAAACAUGAGGAUCACCCAUGUCAGGAUAUGCACAAACAAACAAACAAACAAGCAAGCAGAAGGGACACUAC [Amethyst 88] | 25.4 nM
32 | AACUGACAUGAGGAUCACCCAUGUCAGGAUAUGCAUCUUAGGAAAAAAAAACUAAGAUGCAGAAGGGACAUGGG [Design 3: Super Stable 3] | 16.8 nM
33 | ACAAAUGUAGGAUAUACAUGAGGAUCACCCAUGUGGCAGAAACAGCAAACAAGACGAAGUAGAAGGACAACGAC [JR_Exc003-Sub902] | 29.1 nM
34 | CAAAAGCUAGGAUAUGCUAAUUGUUCCUUAAGUCAAAAUAAACAUGAGGAUCACCCAUGUAGAAGGAGCCCACA [Tegean] | 31.5 nM
35 | AACAGUACAGGAUAUACAUGAGGAUCACCCAUGUGAGAAUUAAGUGGAGAACCACAAAGUAGAAGGGUACUGAA [Mat - Exclusion 3 - JL mod - D8] | 39.2 nM
36 | AGAACACAUGAGGAUCACCCAUGUCAGGAUAUUCAAACAAAAACAAAACAAAACAAACGAAGAAGGGACAAAAG [May 2] | 32.3 nM
37 | CAUUCACAUGAGGAUCACCCAUGUAAGGAUAUCGAAAUAAAACUAAUCAAUAAACAAACGAGAAGGUACAAAAA [Exclusion 1 design 9] | 26 nM
38 | AAAAAGGGAGGAUAUACAUGAGGAUCACCCAUGUAUCAGACGAAAAAGAGUCUGAAAUGUAGAAGGCCCAAAAA [65%, Moding Exclusion3-cac2, 2] | 20.7 nM
39 | AAAUGACUAGGAUAUACAUGAGGAUCACCCAUGUGUUAAAAUAAAUACACAAAAGAAAGUAGAAGGAGUCAAAG [Mat - Exclusion 3 - Mayanna mod - D125] | 21.5 nM
40 | GAAUGUCUAGGAUAUACAUGAGGAUCACCCAUGUGUAAAAAUAAAUACACAAAAGAAAGUAGAAGGAGACAAAG [Mat - Exclusion 3 - Mayanna mod - D122] | 28.5 nM
41 | AACUGACAUGAGGAUCACCCAUGUCAGGAUAUGCUUCAUAAAAAAAAAAAAAAAUGAUGCAGAAGGGAUAUGGA [Design 36 :P Sub-opt 12] | 21.5 nM
42 | AAAAACCUAGGAUAUACAUGAGGAUCACCCAUGUAAAGAAACAAAAAGGGAAACACAAGUAGAAGGAGGAAGAA [JR_Exc003_Sub1203] | 22.6 nM
43 | ACCAGACAUGAGGAUCACCCAUGUCAGGAUAUAGUAUGAAAAAAAAAAAAAAAAAAUACUAGAAGGGACAAGGG [Design 14: Super Stable Short Helix 5] | 29.7 nM
44 | AAAAAACAUGAGGAUCACCCAUGUGAGGAUAUGAUGAAAGAUUGAAAAAGGUUGAAAGUCAGAAGGUAUGUGAA [Exclusion 1.3] | 30.4 nM
